Consider 3 molecules from patent US9492501B2, “Antiviral agent” (priority 2009, dated 2016).

Where only a bound is given, the exact number is not on record here.

Data set [1] has as its system HIV-1 (proviral genome NL4.3, strain LAI). Nature of the data set: HIV-1 replication, ELISA of viral p24 capsid protein in supernatant of infected Jurkat 1G5 cells. Type of data set: cell-based. The note with it: treatment 24 hours. An excerpt:
(§1) Method: a Jurkat CD4+ T lymphocyte cell line (line 1G5) having integrated into its genome a construction comprising a luciferase reporter gene the expression of which is controlled by the HIV-1 promoter (HIV-1 LTR; HIV-LTR Jurkat line) was used. The measurement of luciferase activity from the cell extracts therefore makes it possible to estimate the HIV-1 transcriptional activity.
(§2) The Jurkat HIV-LTR and Jurkat 1G5 lines were transfected by means of the DEAE-dextran technique with the proviral genome NL4.3 (complete HIV-1 genome, strain LAI).
(§3) The HIV-LTR Jurkat and 1G5 Jurkat lines thus infected, are treated 24 hours later with HPBP/PON protein complexes or with purified PON or HPBP proteins at a final concentration of 2 μg/mL of medium (52 nM of protein alone).
(§4) The cells and the cell supernatant are sampled after treatment for 24 hours.
The transcriptional activity is measured by carrying out a luciferase test. The intensity of the HIV-1 replication is measured by means of ELISA assay of the quantity of viral p24 capsid proteins present in the supernatant of the cell cultures of the infected 1G5 lines [Rohr, O., et al. (2000). The Journal of Biological Chemistry 275, 2654-2660]. […]
(§5) The transcriptional activity and inhibition of the replication are measured as described in Example 6.
In general terms: ELISA stands for enzyme-linked immunosorbent assay.

For data set [2], the system named is HIV-1 promoter (HIV-1 LTR). Description: HIV-1 transcriptional activity, luciferase test in HIV-LTR Jurkat line. Type of data set: cell-based. The settings on record: treatment 24 hours.
Excerpt: as §1, §2, §3, §4
The transcriptional activity is measured by carrying out a luciferase test. The intensity of the HIV-1 replication is measured by means of ELISA assay of the quantity of viral p24 capsid proteins present in the supernatant of the cell cultures of the infected 1G5 lines [Rohr, O., et al. (2000). The Journal of Biological Chemistry 275, 2654-2660].
An untreated negative control as well as a positive control treated with AZT at a final concentration of 10 μM were carried out in parallel. Each experiment is carried out in triplicate.
In parallel, the infected lymphocyte lines obtained were treated with 10 μg of potato DING protein.
Method: a Jurkat CD4+ T lymphocyte cell line (line 1G5) having integrated into its genome a construction comprising a luciferase reporter gene the expression of which is controlled by the HIV-1 promoter (HIV-1 LTR; HIV-LTR Jurkat line) was used. Measurement of luciferase activity from the cell extracts therefore makes it possible to estimate the HIV-1 transcriptional activity. […]
as §5

For data set [3], the target named is C/EBPβ protein (Homo sapiens, UniProt P17676). Description: ELISA of in vitro interaction of HPBP and C/EBPβ proteins. It is filed as binding. The settings on record: C/EBPβ adsorbed on plate, pure HPBP 0.1 nM to 100 mM. How it is done:
(§6) The combination of the Human Phosphate Binding Protein (HPBP) with the C/EBPβ protein is carried out using an ELISA technique.
In ELISA flat-bottom 96-well plates having a high binding affinity for proteins, the C/EBPβ protein is adsorbed on the support and incubated overnight at 4° C.
(§7) The proteins not bound to the plate are removed by washing with a Phosphate Buffered Saline (PBS) buffer containing 10 mg/mL of Bovine Serum Albumin (BSA).
The wells are saturated with a Phosphate Buffered Saline (PBS) buffer solution containing 20 mg/mL of Bovine Serum Albumin (BSA) for 1 hour at room temperature in order to remove the background noise.
After washing with a Phosphate Buffered Saline (PBS) solution containing 10 mg/mL of Bovine Serum Albumin (BSA), different solutions of pure HPBP from 0.1 nM to 100 mM are added to the wells for incubation for 1-3 hours at RT.
The plate is once again washed then incubated with mouse monoclonal anti-HPBP antibodies or rabbit polyclonal anti-HPBP antibodies for incubation for 1-3 hours at RT. […]
(§8) Then after a last washing, the plate is incubated with an HRP substrate (3,3′,5,5′-tetramethylbenzidine: TNB in the presence of hydrogen peroxide H2O2). […] The optical density of the product of the reaction is then measured with a spectrophotometer at 450 nm.

For data set [4], the system named is Microglial cell line. Nature of the data set: Cell toxicity by MTT method, microglial cell line. Type of data set: cell-based. The note with it: for LD50: microglial line, MTT. The procedure: (§9) After culture for 24 hours, the toxicity of the protein is evaluated by measuring the number of living cells by the MTT method (3-(4,5-dimethylthiazol-2-yl)-2,5-diphenyl tetrazolium bromide) as described in Berridge et al. Biotechnology Annual Review, 2005, 11, 127-152.
Similar experiments were carried out on microglial lines. Conditions similar to those used for the 1g5 cells were used, with 5.10^5 cells/mL.
(§10) The PBL cells were treated with 0.24 μg/mL, 0.48 μg/mL, 0.96 μg/mL, 2.4 μg/mL, 4.8 μg/mL, 9.6 μg/mL, or 24 μg/mL of HPBP protein. Untreated cells were tested as a control.
The cell toxicity of St. John's wort protein p27^SJ was measured on cells in culture under the conditions described in Example 15. The p27^SJ was tested at doses of 0 μg/mL (control), 0.01 μg/mL, 0.1 μg/mL, 0.5 μg/mL, 1 μg/mL, 5 μg/mL, 10 μg/mL, 20 μg/mL and 40 μg/mL.

The target in data set [5] is T1, GST-Tat protein (Human immunodeficiency virus type 1 group M subtype B, UniProt P04608).
T1 construct: made in house
Description: ELISA of in vitro interaction of HPBP and Tat proteins. It is filed as binding, HIV-1. The settings on record: GST-Tat adsorbed on plate, pure HPBP 0.1 nM to 100 mM. How it is done: as §6
In flat-bottom 96-well ELISA plates having a high protein-binding affinity the GST-Tat protein is adsorbed on the support and incubated overnight at 4° C.
as §7
The wells are saturated with a Phosphate Buffered Saline (PBS) buffer solution containing 20 mg/mL of Bovine Serum Albumin (BSA) for 1 hour at room temperature in order to eliminate the background noise. […]
as §8
The inventors used the Enzyme Linked Immunosorbent Assay (ELISA) technique, suited to studying the interaction between the HPBP protein and the HIV-1 (TAT) protein (Engvall and Perlmann, 1971)). The HIV-1 TAT protein was expressed in the form of a fusion with GST in order to obtain the soluble protein and in quantity (approximately 2 mg/mL). […]

For data set [6], the system named is Peripheral Blood Lymphocyte (PBL) cells. Description: Cell toxicity by MTT method, peripheral blood lymphocytes. Type of data set: cell-based. The settings on record: FIG. 11. The procedure:
as §9
Similar experiments were carried out on primary lymphocytes. Conditions similar to those used for the 1g5 cells were used.
as §10
For orientation: Tetrazolium dyes change colour on reduction, which living cells bring about.

For data set [7], the system named is Cell Line R3HR-1G5 (1g5). Nature of the data set: Cell toxicity by MTT method, cell line R3HR-1G5 (1g5). It is filed as cell-based. The note with it: 1g5 cells, culture 24 hours, FIG. 10. The procedure:
The cell toxicity of the HPBP protein was measured on cells in culture.
5.10^6 cells/mL of the lymphoid line B 1g5 were seeded on plates and treated, or not treated, with different doses of purified HPBP protein: 0.2 μg/mL, 2 μg/mL, 20 μg/mL, or 90 μg/mL.
The cells are cultured for 24 hours at 37° C.
as §9
Briefly, 10 μL of MTT is added to each culture.
The mixture is added quickly over 1 minute, then the cultures are returned to 37° C. for 4 hours.
The culture supernatant is then aspirated, and the crystals formed by the presence of MTT are dissolved with acetic acid.
The optical density (OD) of each of the cultures is measured at 570 nm using a spectrophotometer.

T1 sequence (P04608 whole entry): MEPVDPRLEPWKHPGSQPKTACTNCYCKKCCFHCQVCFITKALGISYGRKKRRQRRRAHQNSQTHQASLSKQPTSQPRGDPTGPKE
Sequence of C/EBPβ protein (P17676 whole entry, species assumed): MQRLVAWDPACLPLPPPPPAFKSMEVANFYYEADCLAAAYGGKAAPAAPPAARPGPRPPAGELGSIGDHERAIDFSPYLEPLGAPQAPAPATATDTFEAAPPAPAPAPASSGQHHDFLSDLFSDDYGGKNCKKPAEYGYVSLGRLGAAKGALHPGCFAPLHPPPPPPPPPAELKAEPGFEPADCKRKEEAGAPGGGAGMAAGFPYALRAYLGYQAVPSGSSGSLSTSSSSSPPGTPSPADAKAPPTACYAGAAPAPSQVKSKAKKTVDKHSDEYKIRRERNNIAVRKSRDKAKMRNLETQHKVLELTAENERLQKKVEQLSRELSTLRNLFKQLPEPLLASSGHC

B1: PON-1: human paraoxonase (PON1), co-purified with HPBP from plasma and separated on hydroxyapatite (protein)
chain: AKLIALTLLGMGLALFRNHQSSYQTRLNALREVQPVELPNCNLVKGIETGSEDLEILPNGLAFISSGLKYPGIKSFNPNSPGKILLMDLNEEDPTVLELGITGSKFDVSSFNPHGISTFTDEDNAMYLLVVNHPDAKSTVELFKFQEEEKSLLHLKTIRHKLLPNLNDIVAVGPEHFYGTNDHYFLDPYLQSWEMYLGLAWSYVVYYSPSEVRVVAEGFDFANGINISPDGKYVYIAELLAHKIHVYEKHANWTLTPLKSLDFNTLVDNISVDPETGDLWVGCHPNGMKIFFYDSENPPASEVLRIQNILTEEPKVTQVYAENGTVLQGSTVASVYKGKLLIGTVFHKALYCEL
For B1, in data set [1] (2 μg/mL, p24, FIG. 4), the “repressive effect on HIV-1 replication (in words)” value was “no repressive effect”. Also, the “inhibiting effect on transcriptional activity (in words)” value in data set [2] (2 μg/mL, luciferase, FIG. 3) is recorded as “does not have such an inhibiting effect”.

B2: HPBP: human phosphate binding protein, plasma DING protein of 38 kDa, SEQ ID NO: 2, purified from human plasma (protein, listed as Homo sapiens)
chain: DINGGGATLPQKLYLTPDVLTAGFAPYIGVGSGKGKIAFLENKYNQFGTDTTKNVHWAGSDSKLTATELATYAADKEPGWGKLIQVPSVATSVAIPFRKAGANAVDLSVKELCGVFSGRIADWSGITGAGRSGPIQVVYRAESSGTTELFTRFLNAKCTTQPGTFAVTTVFANSYSLGLSPLAGAVAAIGSVGVMAADNDVTTAQGRITYISPDFAAPTLAGLDDATKVARTGKGSSSGGGAEGKSPAAANVSAAISVVPLPAAADRGDPNVWTPVFGAVTGGGVVAYPDSGYPILGFTDLIFSECYANATQTGQVRNFFTKHYGTSANDNAAIQANAFVPLPSNWKAAVRASYLTASNALSIGDSAVCGGKGRPE
For B2, the “interaction of HPBP protein and C/EBPβ protein in vitro” value in data set [3] is “capable of interacting in vitro”. In addition, the LD50 result is “approximately 2.5 μg/mL” in data set [4] (FIG. 12) and “approximately 5 μg/mL” in data set [6]. Moreover, in data set [1] (2 μg/mL (52 nM), p24 in supernatant, CD4+ T lymphocytes (Jurkat 1G5)), the “inhibition of HIV-1 replication” value amounted to 89%. Also, in data set [2] (2 μg/mL (52 nM), luciferase, FIG. 3), the transcriptional activity repressed is recorded as 80%. Moreover, in data set [2] (HPBP 2 μg/mL, FIG. 5 (luciferase activity)), the “inhibits the viral replication by a factor (FIG. 5)” value is on record as more than 6. Besides, the “interaction of HPBP protein and Tat protein in vitro” value in data set [5] is “capable of interacting in vitro”. In addition, in data set [7], the “lethal dose 50% (LD50, dose killing half of the cells)” value was “approximately 20 μg/mL”.

B3: p27^SJ: St. John's wort protein, SEQ ID NO: 4, 71% sequence homology with SEQ ID NO: 1, excluded from the invention (protein, listed as Hypericum perforatum)
chain: MADINGGGATLPQALYQTSGVLTAGFAPYIGVGSGNGKAAFLNNDYTKFQAGVTNKNVHWAGSDSKLSATELSTYASAKQPTWGKLIQVPSVGTAVAIPFNKSGTAAVDLSVSELCGVFSGRITDWSGISGSGRTGAITVVYRSESSGTTELFTRFLNAKCAETGTFNISTTFGTSYTGGLPAGAVSAAGSQGVMTALAGADGGTTYMSPDFAAPTLAGLDDATKVARVGKDVATNTAGVSPAAANVSAAINAVPVPASTEKP
Regarding B3, the “cell toxicity (in words)” value in data set [4] (conditions of Example 15, FIG. 12) is given as “toxicity very clearly less than that of the HPBP protein”. Also, the cells dead result in data set [4] (dose of 40 μg/mL, FIG. 12) is given as “approximately 4%”. Also, the LD50 entry in data set [4] (FIG. 12) was “greater than 2.5 μg/mL”.
